Measurements: PMC2112927

Molecular target: rabbit skeletal muscle F-actin (rabbit), P68135
Assay: nanosecond emission anisotropy
Conditions: remark: other sources report otherwise

B1: IAENS-labeled Dictyostelium severin, P10733 1-362 (natural protein)
chain: MIKNRKLDITSTNVAGIGTDLDKKCRLDAASTEAQWKGVGQAPGLKIWRIENFKVVPVPESSYGKFYDGDSYIILHTFKEGNSLKHDIHFFLGTFTTQDEAGTAAYKTVELDDFLGGAPIQYRQCQSYESPSFLSLFPKYFILSGGVESGFNHVKPTEYKPRLLHISGDKNAKVAEVPLATSSLNSGDCFLLDAGLTIYQFNGSKSSPQEKNKAAEVARAIDAERKGLPKVEVFCETDSDIPAEFWKLLGGKGAIAAKHETAPTKSEKVLYKLSDASGSLKFSEVSRGKINKSSLKSEDVFIIDLGNEIYTWIGSKSSPNEKKTAFSHATQYLVNNKRCEYTPIVRVLENGTNQSFETLLSA
modifications: here or on the partner: one to two IAENS molecules attached to the protein (residues not stated)
rotational correlation time: > 400 ns
